Laboratory results from paper PMC12759081, “S-phase PARylation of microprotein RSMC enhances the function of Sororin in sister chromatid cohesion” (The EMBO Journal, 2025).

Experiments:
Conditions in all cases: both partners purified
[1] = biological target: T1, 6×His-3×Flag-PDS5B, Cy5-labelled (UniProt Q9NTI5 1-1447, Cy5 label); assay: MST; competitive: 34 nM Cy5-PDS5B and Wapl dilutions combined 10 min at RT, then Sororin and RSMC added (17 nM each, 1:1 molar ratio); 25 °C, 50 mM Tris pH 7.4, 150 mM NaCl, 10% glycerol, 0.05% Tween-20
T1 construct: PDS5B, cDNA in pFastBac1; primers run from the start codon to the stop codon; also called His-Flag-PDS5B; Cy5-labeled PDS5B; source: SF9 cells (baculovirus), purified (Ni2+ Sepharose); not shown: His6, N-terminal, kept; 3×Flag, N-terminal, kept
T1 sequence (looked up): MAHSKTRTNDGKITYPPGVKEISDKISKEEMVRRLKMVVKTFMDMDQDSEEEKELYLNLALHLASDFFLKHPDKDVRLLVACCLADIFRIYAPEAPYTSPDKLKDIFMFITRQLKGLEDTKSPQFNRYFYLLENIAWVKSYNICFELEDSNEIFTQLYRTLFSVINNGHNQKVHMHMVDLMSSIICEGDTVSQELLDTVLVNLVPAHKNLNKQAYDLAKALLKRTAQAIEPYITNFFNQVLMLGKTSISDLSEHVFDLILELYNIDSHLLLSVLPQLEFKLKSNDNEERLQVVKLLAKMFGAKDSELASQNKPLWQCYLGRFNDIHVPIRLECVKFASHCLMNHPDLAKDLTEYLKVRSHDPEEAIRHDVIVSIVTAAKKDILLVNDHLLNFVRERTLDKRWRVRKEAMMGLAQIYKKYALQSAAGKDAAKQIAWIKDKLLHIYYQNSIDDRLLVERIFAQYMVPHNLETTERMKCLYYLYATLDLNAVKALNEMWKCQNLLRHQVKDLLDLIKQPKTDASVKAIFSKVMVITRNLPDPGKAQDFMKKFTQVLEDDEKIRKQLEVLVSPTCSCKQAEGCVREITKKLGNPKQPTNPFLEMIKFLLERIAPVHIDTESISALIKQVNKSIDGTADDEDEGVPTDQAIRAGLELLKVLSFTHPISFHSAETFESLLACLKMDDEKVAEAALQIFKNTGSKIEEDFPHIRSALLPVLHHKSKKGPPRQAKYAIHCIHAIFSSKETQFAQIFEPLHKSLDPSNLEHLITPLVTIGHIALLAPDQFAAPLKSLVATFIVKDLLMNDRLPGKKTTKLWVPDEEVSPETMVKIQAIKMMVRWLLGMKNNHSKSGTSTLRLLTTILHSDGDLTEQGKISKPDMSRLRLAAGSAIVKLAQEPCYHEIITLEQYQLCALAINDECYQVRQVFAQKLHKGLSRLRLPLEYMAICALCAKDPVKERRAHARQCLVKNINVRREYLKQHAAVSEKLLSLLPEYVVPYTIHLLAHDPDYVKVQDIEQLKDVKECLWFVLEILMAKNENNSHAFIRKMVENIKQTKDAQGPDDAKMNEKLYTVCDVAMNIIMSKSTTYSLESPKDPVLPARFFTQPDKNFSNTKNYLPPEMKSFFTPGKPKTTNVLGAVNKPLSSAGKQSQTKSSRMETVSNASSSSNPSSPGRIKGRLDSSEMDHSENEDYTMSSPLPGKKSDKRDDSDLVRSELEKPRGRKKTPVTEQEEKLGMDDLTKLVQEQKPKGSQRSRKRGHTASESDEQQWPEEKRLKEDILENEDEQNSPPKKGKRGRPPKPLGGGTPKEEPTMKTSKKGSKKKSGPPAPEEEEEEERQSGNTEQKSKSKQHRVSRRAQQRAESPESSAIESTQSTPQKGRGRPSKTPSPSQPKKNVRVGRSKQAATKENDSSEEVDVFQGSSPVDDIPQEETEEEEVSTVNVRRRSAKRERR

[2] = biological target: T1, 6×His-3×Flag-PDS5B, Cy5-labelled; assay: MST; competitive: 34 nM Cy5-PDS5B and Wapl dilutions combined 10 min at RT, then 17 nM Sororin added; 25 °C, 50 mM Tris pH 7.4, 150 mM NaCl, 10% glycerol, 0.05% Tween-20
[3] = biological target: T1, 6×His-3×Flag-PDS5B, Cy5-labelled; assay: MST; Cy5-labelled PDS5B at 34 nM, partner in twofold dilutions; 25 °C, 50 mM Tris pH 7.4, 150 mM NaCl, 10% glycerol, 0.05% Tween-20; Monolith NT.115

Kd of Wapl-PDS5B with Sororin and RSMC added (1:1) [1]: 50.1 µM | Kd of Wapl-PDS5B with Sororin added [2]: 25.3 µM | Kd [3]: ~4.7 µM
B1: Wapl (natural protein, UniProt Q7Z5K2 1-1190, looked up)
chain: MTSRFGKTYSRKGGNGSSKFDEVFSNKRTTLSTKWGETTFMAKLGQKRPNFKPDIQEIPKKPKVEEESTGDPFGFDSDDESLPVSSKNLAQVKCSSYSESSEAAQLEEVTSVLEANSKISHVVVEDTVVSDKCFPLEDTLLGKEKSTNRIVEDDASISSCNKLITSDKVENFHEEHEKNSHHIHKNADDSTKKPNAETTVASEIKETNDTWNSQFGKRPESPSEISPIKGSVRTGLFEWDNDFEDIRSEDCILSLDSDPLLEMKDDDFKNRLENLNEAIEEDIVQSVLRPTNCRTYCRANKTKSSQGASNFDKLMDGTSQALAKANSESSKDGLNQAKKGGVSCGTSFRGTVGRTRDYTVLHPSCLSVCNVTIQDTMERSMDEFTASTPADLGEAGRLRKKADIATSKTTTRFRPSNTKSKKDVKLEFFGFEDHETGGDEGGSGSSNYKIKYFGFDDLSESEDDEDDDCQVERKTSKKRTKTAPSPSLQPPPESNDNSQDSQSGTNNAENLDFTEDLPGVPESVKKPINKQGDKSKENTRKIFSGPKRSPTKAVYNARHWNHPDSEELPGPPVVKPQSVTVRLSSKEPNQKDDGVFKAPAPPSKVIKTVTIPTQPYQDIVTALKCRREDKELYTVVQHVKHFNDVVEFGENQEFTDDIEYLLSGLKSTQPLNTRCLSVISLATKCAMPSFRMHLRAHGMVAMVFKTLDDSQHHQNLSLCTAALMYILSRDRLNMDLDRASLDLMIRLLELEQDASSAKLLNEKDMNKIKEKIRRLCETVHNKHLDLENITTGHLAMETLLSLTSKRAGDWFKEELRLLGGLDHIVDKVKECVDHLSRDEDEEKLVASLWGAERCLRVLESVTVHNPENQSYLIAYKDSQLIVSSAKALQHCEELIQQYNRAEDSICLADSKPLPHQNVTNHVGKAVEDCMRAIIGVLLNLTNDNEWGSTKTGEQDGLIGTALNCVLQVPKYLPQEQRFDIRVLGLGLLINLVEYSARNRHCLVNMETSCSFDSSICSGEGDDSLRIGGQVHAVQALVQLFLERERAAQLAESKTDELIKDAPTTQHDKSGEWQETSGEIQWVSTEKTDGTEEKHKKEEEDEELDLNKALQHAGKHMEDCIVASYTALLLGCLCQESPINVTTVREYLPEGDFSIMTEMLKKFLSFMNLTCAVGTTGQKSISRVIEYLEHC
notes: Wapl, cohesin-releasing factor; primers run from the start codon to the stop codon
